Data as given in the supplement of paper PMC11246515.
± gives the standard deviation of the averaged measurements.

Test: total protein half-life in vivo (active degradation + dilution); higher = more stable protein
[1] = E. coli NCM3722 delta-clpP, growth: N-lim chemostat, doubling time 6 h
[2] = E. coli NCM3722 delta-hslV, growth: N-lim chemostat, doubling time 6 h
[3] = E. coli NCM3722 delta-lon, growth: N-lim chemostat, doubling time 6 h
[4] = E. coli NCM3722 delta-smpB, growth: N-lim chemostat, doubling time 6 h
[5] = wild type E. coli NCM3722, growth: C-lim chemostat, doubling time 3 h
[6] = wild type E. coli NCM3722, growth: C-lim chemostat, doubling time 6 h
[7] = wild type E. coli NCM3722, growth: C-lim chemostat, doubling time 12 h
[8] = wild type E. coli NCM3722, growth: N-lim chemostat, doubling time 6 h
[9] = wild type E. coli NCM3722, growth: N-lim chemostat, doubling time 12 h
[10] = wild type E. coli NCM3722, growth: P-lim chemostat, doubling time 6 h
[11] = wild type E. coli NCM3722, growth: P-lim chemostat, doubling time 12 h
[12] = E. coli NCM3722 delta-clpP delta-lon delta-hslV, growth: N-lim chemostat, doubling time 6 h

P0ABR5, sequence (chain, as listed by the source): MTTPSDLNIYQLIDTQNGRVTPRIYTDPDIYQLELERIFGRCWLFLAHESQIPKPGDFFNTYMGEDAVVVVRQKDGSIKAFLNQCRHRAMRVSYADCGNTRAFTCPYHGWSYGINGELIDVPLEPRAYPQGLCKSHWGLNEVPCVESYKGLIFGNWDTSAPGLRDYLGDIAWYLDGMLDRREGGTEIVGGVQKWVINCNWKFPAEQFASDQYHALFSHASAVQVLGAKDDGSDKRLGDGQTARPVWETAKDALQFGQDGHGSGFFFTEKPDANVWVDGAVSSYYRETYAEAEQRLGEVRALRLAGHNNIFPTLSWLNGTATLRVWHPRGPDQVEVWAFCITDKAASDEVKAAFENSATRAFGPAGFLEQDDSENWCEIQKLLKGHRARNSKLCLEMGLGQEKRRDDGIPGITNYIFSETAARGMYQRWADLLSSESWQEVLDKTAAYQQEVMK

Row | Substance | total protein half-life in vivo [1] [h] | total protein half-life in vivo [2] [h] | total protein half-life in vivo [3] [h] | total protein half-life in vivo [4] [h] | total protein half-life in vivo [5] [h] | total protein half-life in vivo [6] [h] | total protein half-life in vivo [7] [h] | total protein half-life in vivo [8] [h] | total protein half-life in vivo [9] [h] | total protein half-life in vivo [10] [h] | total protein half-life in vivo [11] [h] | total protein half-life in vivo [12] [h]
1 | MIEADRLISAGTTLPEDVADRAIRPKLLEEYVGQPQVRSQMEIFIKAAKLRGDALDHLLIFGPPGLGKTTLANIVANEMGVNLRTTSGPVLEKAGDLAAMLTNLEPHDVLFIDEIHRLSPVVEEVLYPAMEDYQLDIMIGEGPAARSIKIDLPPFTLIGATTRAGSLTSPLRDRFGIVQRLEFYQVPDLQYIVSRSARFMGLEMSDDGALEVARRARGTPRIANRLLRRVRDFAEVKHDGTISADIAAQALDMLNVDAEGFDYMDRKLLLAVIDKFFGGPVGLDNLAAAIGEERETIEDVLEPYLIQQGFLQRTPRGRMATTRAWNHFGITPPEMP [P0A812] | 3.14 ± 0.2 | 1.8 ± 0.077 | 2.7 ± 0.38 | 1.63 ± 0.079 | 2.35 ± 0.51 | 3.53 ± 0.55 | 5.83 ± 0.95 | 2.08 ± 0.048 | 2.46 ± 0.039 | 3.14 ± 0.27 | 4.66 ± 0.42 | –
2 | MKYKHLILSLSLIMLGPLAHAEEIGSVDTVFKMIGPDHKIVVEAFDDPDVKNVTCYVSRAKTGGIKGGLGLAEDTSDAAISCQQVGPIELSDRIKNGKAQGEVVFKKRTSLVFKSLQVVRFYDAKRNALAYLAYSDKVVEGSPKNAISAVPVMPWRQ [P0AE91] | – | 6.57 ± 0.31 | – | 6.01 ± 0.23 | 2.92 ± 0.29 | 5.9682 ± 0.0034 | 12.1 ± 2.7 | 6.39 ± 1.3 | 13.3 ± 0.76 | 6.41 ± 0.56 | – | 5.76 ± 0.34
3 | MSGLPLISRRRLLTAMALSPLLWQMNTAHAAAIDPNRIVALEWLPVELLLALGIVPYGVADTINYRLWVSEPPLPDSVIDVGLRTEPNLELLTEMKPSFMVWSAGYGPSPEMLARIAPGRGFNFSDGKQPLAMARKSLTEMADLLNLQSAAETHLAQYEDFIRSMKPRFVKRGARPLLLTTLIDPRHMLVFGPNSLFQEILDEYGIPNAWQGETNFWGSTAVSIDRLAAYKDVDVLCFDHDNSKDMDALMATPLWQAMPFVRAGRFQRVPAVWFYGATLSAMHFVRVLDNAIGGKA | – | 6.62 | 6.51 ± 1.4 | 3.92 ± 1.1 | 2.71 | 5.86 | 12.2 | 5.85 | 12 ± 1.3 | – | – | –
4 | MKQLWFAMSLVTGSLLFSANASATPASGALLQQMNLASQSLNYELSFISINKQGVESLRYRHARLDNRPLAQLLQMDGPRREVVQRGNEISYFEPGLEPFTLNGDYIVDSLPSLIYTDFKRLSPYYDFISVGRTRIADRLCEVIRVVARDGTRYSYIVWMDTESKLPMRVDLLDRDGETLEQFRVIAFNVNQDISSSMQTLAKANLPPLLSVPVGEKAKFSWTPTWLPQGFSEVSSSRRPLPTMDNMPIESRLYSDGLFSFSVNVNRATPSSTDQMLRTGRRTVSTSVRDNAEITIVGELPPQTAKRIAENIKFGAAQ [P0AFX9] | 6.16 ± 0.25 | 6.13 ± 0.069 | 5.896 ± 0.045 | 5.8 ± 0.49 | 2.96 ± 0.22 | 6.16 ± 0.61 | 10.4 ± 0.19 | 6.73 ± 0.14 | 13.2 ± 1.5 | 5.88 ± 0.69 | 12 ± 0.74 | –
5 | MIPFNAPPVVGTELDYMQSAMGSGKLCGDGGFTRRCQQWLEQRFGSAKVLLTPSCTASLEMAALLLDIQPGDEVIMPSYTFVSTANAFVLRGAKIVFVDVRPDTMNIDETLIEAAITDKTRVIVPVHYAGVACEMDTIMALAKKHNLFVVEDAAQGVMSTYKGRALGTIGHIGCFSFHETKNYTAGGEGGATLINDKALIERAEIIREKGTNRSQFFRGQVDKYTWRDIGSSYLMSDLQAAYLWAQLEAADRINQQRLALWQNYYDALAPLAKAGRIELPSIPDGCVQNAHMFYIKLRDIDDRSALINFLKEAEIMAVFHYIPLHGCPAGEHFGEFHGEDRYTTKESERLLRLPLFYNLSPVNQRTVIATLLNYFS | 4.4 ± 0.0057 | 4.83 ± 0.25 | 4.45 | 4.25 ± 0.17 | 2.89 ± 0.68 | 6.6 ± 1 | 12.5 ± 1.2 | 5.2 | 8.13 ± 0.2 | 6.1125 ± 0.0047 | 12.33 ± 0.05 | 4.72 ± 0.099
6 | P0ABR5 | – | – | – | – | 1.02 | 2.09 | 3.87 ± 2.6 | – | – | 1.661 ± 0.003 | 2.48 ± 0.059 | 6.36 ± 1.3
7 | MATDTLTHATAHAHEHGHHDAGGTKIFGFWIYLMSDCILFSILFATYAVLVNGTAGGPTGKDIFELPFVLVETFLLLFSSITYGMAAIAMYKNNKSQVISWLALTWLFGAGFIGMEIYEFHHLIVNGMGPDRSGFLSAFFALVGTHGLHVTSGLIWMAVLMVQIARRGLTSTNRTRIMCLSLFWHFLDVVWICVFTVVYLMGAM [P0ABJ3] | – | – | – | – | – | – | 13.9 | – | – | – | – | –
8 | MKKRVYLIAAVVSGALAVSGCTTNPYTGEREAGKSAIGAGLGSLVGAGIGALSSSKKDRGKGALIGAAAGAALGGGVGYYMDVQEAKLRDKMRGTGVSVTRSGDNIILNMPNNVTFDSSSATLKPAGANTLTGVAMVLKEYPKTAVNVIGYTDSTGGHDLNMRLSQQRADSVASALITQGVDASRIRTQGLGPANPIASNSTAEGKAQNRRVEITLSPL | 5.47 | 6.78 ± 0.46 | 6.16 ± 0.47 | 5.3 ± 0.5 | 2.78 ± 0.1 | 5.45 ± 0.11 | – | 5.81 ± 0.95 | 12.6 | 5.82 | 11.4 ± 0.82 | –
9 | MIVAFCLYKYFPFGGLQRDFMRIASTVAARGHHVRVYTQSWEGDCPKAFELIQVPVKSHTNHGRNAEYYAWVQNHLKEHPADRVVGFNKMPGLDVYFAADVCYAEKVAQEKGFLYRLTSRYRHYAAFERATFEQGKSTKLMMLTDKQIADFQKHYQTEPERFQILPPGIYPDRKYSEQIPNSREIYRQKNGIKEQQNLLLQVGSDFGRKGVDRSIEALASLPESLRHNTLLFVVGQDKPRKFEALAEKLGVRSNVHFFSGRNDVSELMAAADLLLHPAYQEAAGIVLLEAITAGLPVLTTAVCGYAHYIADANCGTVIAEPFSQEQLNEVLRKALTQSPLRMAWAENARHYADTQDLYSLPEKAADIITGGLDG | 7.01 ± 1.2 | 6.71 ± 0.8 | 5.95 ± 0.33 | 5.9 ± 0.47 | 3.115 ± 0.015 | 6.72 ± 0.35 | 11.8 ± 2.6 | 6.2 ± 0.56 | 12.3 ± 1.8 | 6.25 ± 0.29 | 12.2 ± 0.98 | 6.84 ± 0.81
10 | MQDKDFFSWRRTMLLRFQRMETAEEVYHEIELQAQQLEYDYYSLCVRHPVPFTRPKVAFYTNYPEAWVSYYQAKNFLAIDPVLNPENFSQGHLMWNDDLFSEAQPLWEAARAHGLRRGVTQYLMLPNRALGFLSFSRCSAREIPILSDELQLKMQLLVRESLMALMRLNDEIVMTPEMNFSKREKEILRWTAEGKTSAEIAMILSISENTVNFHQKNMQKKINAPNKTQVACYAAATGLI | – | – | – | – | – | – | – | – | – | – | – | 4.97 ± 0.28
